B1: Twist-related protein 1 (Homo sapiens), Q15672 (parent)
chain: MMQDVSSSPVSPADDSLSNSEEEPDRQQPPSGKRGGRKRRSSRRSAGGGAGPGGAAGGGVGGGDEPGSPAQGKRGKKSAGCGGGGGAGGGGGSSSGGGSPQSYEELQTQRVMANVRERQRTQSLNEAFAALRKIIPTLPSDKLSKIQTLKLAARYIDFLYQVLQSDELDSKMASCSYVAHERLSYAFSVWRMEGAWSMSASH

Tests used:
TCF3, P15923-1 [1] = variants of: B1; settings: with TCF3, P15923-1
TCF3, P15923-1 [2] = variants of: B1; settings: with TCF3, P15923-1; remark: listed apart in the source

Sequence of TCF3, P15923-1 (P15923 whole entry): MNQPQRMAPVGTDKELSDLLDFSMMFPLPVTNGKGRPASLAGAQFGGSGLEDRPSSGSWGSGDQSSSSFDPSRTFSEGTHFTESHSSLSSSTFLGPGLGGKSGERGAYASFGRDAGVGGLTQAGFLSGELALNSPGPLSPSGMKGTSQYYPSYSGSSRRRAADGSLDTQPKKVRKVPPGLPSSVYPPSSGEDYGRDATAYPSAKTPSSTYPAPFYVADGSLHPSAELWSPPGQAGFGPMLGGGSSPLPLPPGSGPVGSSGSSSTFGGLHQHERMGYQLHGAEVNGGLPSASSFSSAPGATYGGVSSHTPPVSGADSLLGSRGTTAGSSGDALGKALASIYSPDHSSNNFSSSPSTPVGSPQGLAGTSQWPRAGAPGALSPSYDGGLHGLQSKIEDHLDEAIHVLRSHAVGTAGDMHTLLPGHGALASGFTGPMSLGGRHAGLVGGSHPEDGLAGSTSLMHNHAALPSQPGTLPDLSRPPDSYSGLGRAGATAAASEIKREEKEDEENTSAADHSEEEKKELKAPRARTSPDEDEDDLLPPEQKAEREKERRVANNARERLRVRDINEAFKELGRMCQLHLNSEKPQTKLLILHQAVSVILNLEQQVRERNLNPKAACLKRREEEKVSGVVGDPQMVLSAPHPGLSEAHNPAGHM

| effect of a mutation on the interaction (TCF3, P15923-1 [1]) | effect of a mutation on the interaction (TCF3, P15923-1 [2]) | Variant |
| --- | --- | --- |
| decreasing interaction strength | with no effect | K145E |
| disrupting interaction strength | decreasing interaction strength | A129P |
| disrupting interaction strength | decreasing interaction strength | L159F |
